The record followed here is patent US20250122298A1 (OSSIANIX, published 2025).

The target of experiment [1] is T1, recombinant cynomolgus TfR-1 (cynomolgus, UniProt H9EXL1 89-760 (rhesus entry)).
T1 construct: also called cTfR-1; cTfR1
Briefly: SPR Biacore T200, multi-cycle kinetics, 1:1 model. (In SPR one partner is held on a chip, and binding of the other changes the refractive index at the surface.)

The target in experiment [2] is T2, recombinant human TfR-1 (human, UniProt P02786 89-760, limits assumed).
T2 construct: also called hTfR-1; hTfR1
Briefly: SPR Biacore T200, His-tagged TfR-1 captured by anti-His, single cycle kinetics, 1:1 model. The protocol: (§1) Binding kinetics. Binding kinetics of TXP1 and A06 VNAR antibodies were determined by surface plasmon resonance (SPR) using a Biacore T200 (GE Healthcare). A His-capture kit (GE Healthcare) was used to immobilize anti-His antibodies on CM5 chips (as recommended by the manufacturer). His-tagged recombinant cynomolgus and human TfR-1 in 0.1% BSA in HBS-EP+ buffer (GE Healthcare) was captured at flow rate 10 μl/min. Analyte binding was measured using the single cycle kinetic SPR method on a Biacore T200. Analytes were injected at increasing concentrations (0.98, 3.9, 15.6, 62.5 and 250 nM) in HBS-EP+ at flow rate 30 μl/min. A flow cell without TfR-1 captured served as a reference. The chips were regenerated in 10 mM glycine-HCl, pH 1.5. Sensorgrams were fitted using 1:1 binding model and kinetic constants determined using Biacore T200 Evaluation software (GE Healthcare). Association and dissociation were measured for 360s and 1500s respectively, with flow rate at […].

In experiment [3] the target is T1, recombinant cynomolgus TfR-1. The experiment is described as above. The protocol: as §1
The target in experiment [4] is T3, cell surface human TfR1 on hCMEC/D3 and SH-SY5Y cells (human, UniProt P02786 1-760).
T3 construct: whole, on cells; Endogenous receptor on the cell lines; also called cell surface TfR1; cell-surface hTfR1
The experiment is described as follows: flow cytometry on hCMEC/D3 cells on ice, binding to cell surface TfR1, anti-hFc Alexa647. The protocol:
Functional activity of the fully deimmunized variants was assessed using the hCMEC/D3 human endothelial cell line and the SY-SH5Y human neuronal cell line. Binding to hCMEC/D3 cells was assessed by incubation with serial antibody dilutions for 1h on ice to avoid internalization. The cells were fixed and binding to cell surface TfR1 was measured by flow cytometry. […] Internalization via cell-surface hTfR1 was assessed using the hCMEC/D3 and SY-SH5Y cell lines by incubation with the antibodies for 1 hour at 37° C.
Flow cytometry. hCMEC/D3 cells were seeded onto V-bottom 96-well plates at a density of 1×10⁴ cells/well. All incubations were carried out on ice to prevent internalization. After blocking in PBS containing 10% BSA (FACS buffer), cells were incubated with serial dilutions of TXP1. Cells were stained with propidium iodine (PI; Biolegend) for 20 min, followed by anti-hFc conjugated to Alexa647 diluted 1:300 (Jackson ImmunoResearch) for 30 min. After fixation in 4% PFA for 15 min, the cells were analyzed on a CytoFlex flow cytometer (Beckman Coulter). Gating of cells stained with secondary antibody alone was used to set the negative threshold for and the fluorescence intensity of approximately 1000 cells per condition was measured. EC50 values were calculated using a four parametric non-linear regression model.
For orientation: In flow cytometry, cells or beads pass a laser one at a time.

Experiment [5] addresses T2, recombinant human TfR-1. The experiment is described as follows: SPR Biacore T200, His-tagged TfR1 captured by anti-His, multi-cycle kinetics, 1:1 model. The protocol: Binding kinetics. Binding kinetics of TXP1, TXP1D1 and TXP1D4 were determined by surface plasmon resonance (SPR) using a Biacore T200 (GE Healthcare). A His-capture kit (GE Healthcare) was used to immobilize anti-His antibodies on CM5 chips (as recommended by the manufacturer). His-tagged recombinant hTfR1 in 0.1% BSA in HBS-EP+ buffer (GE Healthcare) was captured at flow rate 10 μl/min. Analyte binding was measured using the multi-cycle kinetic SPR method. Starting analyte concentrations at 400 nM and serially diluted in 1:4 in seven steps. Association and dissociation were measured for 360s and 1500s respectively, with flow rate at 30 μl/min. The chips were regenerated in 10 mM Glycine-HCl, pH 1.5. Sensorgrams were fitted using 1:1 binding model and kinetic constants determined using Biacore T200 Evaluation software (Cytiva).

Another experiment concerns the target T4, HSA (human, UniProt P02768 25-609).
T4 construct: also called human serum albumin (negative control)
Briefly: ELISA, plate-coated HSA as negative control, anti-hFc HRP detection.

The target of experiment [6] is T1, recombinant cynomolgus TfR-1. The experiment is described as follows: ELISA, plate-coated recombinant cTfR1, anti-hFc HRP detection. The protocol:
(§2) TfR1 ELISA. Nunc MaxiSorp plates were coated with 100 ul of 1 μg/ml of in-house purified recombinant human, cynomolgus TfR1 or HSA and incubated at 4° C. overnight. Plates were incubated with blocking buffer (2.5% non-fat dry milk in PBST) for 1 hr at RT. Serial dilutions of TXP1, TXPID1 or TXP1D4 were mixed with non-fat dry milk in PBST to a final concentration of 2.5% and incubated for 30 min. Blocked VNAR antibody solutions (100 μl) were transferred to the blocked plates and incubated for 1 hr. Plates were washed with PBST and incubated with anti-hFc HRP-conjugated antibody diluted 1:5,000 (Sigma) in blocking buffer for 30 min. Plates were washed and developed with SureBlue TMB substrate. Were indicated the velocity of colorimetric reaction development was measured in the kinetic mode at 370 nm and the maximum peak was used for quantitation (Vmax at 370 nm). Alternatively, the TMB reaction was stopped with 1% HCl and absorbance was measured at 450 nm (OD at 450 nm).
Background: In an ELISA, binding on a coated surface is turned into a signal by an enzyme label.

Experiment [7] deals with T2, recombinant human TfR-1. The experiment is described as follows: ELISA, plate-coated recombinant hTfR1, anti-hFc HRP detection. The protocol: as §2
Experiment [8] deals with T2, recombinant human TfR-1. Briefly: ELISA, plate-coated recombinant TfR-1, anti-hFc HRP detection. The protocol:
(§3) TfR-1 binding ELISA. Nunc MaxiSorp plates were coated with 100 μl of 1 μg/ml of in-house purified recombinant human, mouse, rat and cynomolgus TfR-1 and incubated at 4° C. overnight. Plates were incubated with blocking buffer (2.5% non-fat dry milk in PBST) for 1 h at RT. Serially-diluted TXP1 was mixed with non-fat dry milk in PBST to a final concentration of 2.5% and incubated for 30 min. Blocked TXP1 solutions (100 μl) were transferred to the blocked plates and incubated for 1 hr. Plates were washed with PBST and incubated with anti-hFc HRP-conjugated antibody diluted 1:5,000 (Sigma) in blocking buffer for 30 min. Plates were washed and developed with SureBlue™ TMB substrate, the reaction stopped with 1% HCl and absorbance measured at 450 nm.

Another experiment addresses T5, recombinant mouse TfR-1 (mouse, UniProt Q62351 89-763, limits assumed).
T5 construct: also called mTfR-1
The description is as above. The protocol: as §3

The next experiment deals with T6, recombinant rat TfR-1 (rat, UniProt Q99376 87-761, limits assumed).
T6 construct: also called rTfR-1
The description is as above. The protocol: as §3

Experiment [9] concerns the target T1, recombinant cynomolgus TfR-1. The description is as above. The protocol:
as §3

T2 sequence (P02786 89-760 limits assumed): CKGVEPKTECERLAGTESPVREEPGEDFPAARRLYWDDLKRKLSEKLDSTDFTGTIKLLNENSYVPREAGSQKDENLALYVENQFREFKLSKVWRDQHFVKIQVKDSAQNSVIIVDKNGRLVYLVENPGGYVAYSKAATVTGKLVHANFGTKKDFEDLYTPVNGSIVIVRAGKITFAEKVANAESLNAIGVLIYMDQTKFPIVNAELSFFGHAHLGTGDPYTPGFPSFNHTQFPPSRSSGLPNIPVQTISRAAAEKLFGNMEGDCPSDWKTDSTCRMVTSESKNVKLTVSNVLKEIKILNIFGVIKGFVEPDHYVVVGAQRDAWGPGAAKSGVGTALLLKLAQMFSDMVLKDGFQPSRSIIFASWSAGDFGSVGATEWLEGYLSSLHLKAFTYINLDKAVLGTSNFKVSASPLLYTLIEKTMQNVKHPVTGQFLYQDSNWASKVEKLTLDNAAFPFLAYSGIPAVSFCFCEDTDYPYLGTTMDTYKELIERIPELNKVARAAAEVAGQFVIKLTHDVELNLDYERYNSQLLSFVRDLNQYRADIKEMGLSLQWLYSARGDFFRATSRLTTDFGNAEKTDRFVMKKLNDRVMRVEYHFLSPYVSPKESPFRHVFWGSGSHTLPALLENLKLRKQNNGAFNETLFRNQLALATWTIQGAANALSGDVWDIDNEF
T1 sequence (chain, as listed by the source): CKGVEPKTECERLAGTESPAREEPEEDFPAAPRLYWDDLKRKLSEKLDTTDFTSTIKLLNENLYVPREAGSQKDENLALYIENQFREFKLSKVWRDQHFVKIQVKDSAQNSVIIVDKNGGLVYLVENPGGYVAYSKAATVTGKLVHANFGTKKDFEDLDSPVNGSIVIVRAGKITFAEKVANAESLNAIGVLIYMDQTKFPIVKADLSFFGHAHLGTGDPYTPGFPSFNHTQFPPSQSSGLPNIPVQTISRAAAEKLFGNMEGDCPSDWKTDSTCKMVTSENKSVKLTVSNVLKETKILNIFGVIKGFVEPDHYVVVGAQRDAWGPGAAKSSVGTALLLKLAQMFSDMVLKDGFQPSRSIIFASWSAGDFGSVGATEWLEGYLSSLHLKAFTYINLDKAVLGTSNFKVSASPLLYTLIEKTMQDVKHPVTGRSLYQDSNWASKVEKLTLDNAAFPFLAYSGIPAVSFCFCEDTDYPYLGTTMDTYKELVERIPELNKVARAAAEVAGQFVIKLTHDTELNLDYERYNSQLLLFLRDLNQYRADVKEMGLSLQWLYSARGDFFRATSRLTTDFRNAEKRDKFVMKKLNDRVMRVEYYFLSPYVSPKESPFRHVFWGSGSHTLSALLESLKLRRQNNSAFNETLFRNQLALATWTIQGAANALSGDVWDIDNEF
T6 sequence (Q99376 87-761 limits assumed): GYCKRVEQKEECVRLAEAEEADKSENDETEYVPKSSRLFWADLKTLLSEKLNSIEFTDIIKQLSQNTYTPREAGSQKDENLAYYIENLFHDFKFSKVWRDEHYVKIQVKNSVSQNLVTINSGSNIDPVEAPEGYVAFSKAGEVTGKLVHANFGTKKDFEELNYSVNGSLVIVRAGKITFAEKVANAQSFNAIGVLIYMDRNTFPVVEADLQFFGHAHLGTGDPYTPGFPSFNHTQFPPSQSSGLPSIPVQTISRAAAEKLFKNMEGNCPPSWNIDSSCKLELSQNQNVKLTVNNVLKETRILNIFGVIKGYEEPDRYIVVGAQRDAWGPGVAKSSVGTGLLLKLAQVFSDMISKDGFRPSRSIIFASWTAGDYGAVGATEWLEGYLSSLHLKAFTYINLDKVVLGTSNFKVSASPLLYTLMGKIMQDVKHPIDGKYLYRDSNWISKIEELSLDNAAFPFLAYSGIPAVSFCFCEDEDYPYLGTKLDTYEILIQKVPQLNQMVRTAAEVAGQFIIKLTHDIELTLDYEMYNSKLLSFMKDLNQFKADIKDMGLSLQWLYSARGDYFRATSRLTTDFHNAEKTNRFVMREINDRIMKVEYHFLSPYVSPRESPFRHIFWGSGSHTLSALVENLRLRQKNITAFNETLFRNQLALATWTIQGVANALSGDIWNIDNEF
T3 sequence (P02786 whole entry): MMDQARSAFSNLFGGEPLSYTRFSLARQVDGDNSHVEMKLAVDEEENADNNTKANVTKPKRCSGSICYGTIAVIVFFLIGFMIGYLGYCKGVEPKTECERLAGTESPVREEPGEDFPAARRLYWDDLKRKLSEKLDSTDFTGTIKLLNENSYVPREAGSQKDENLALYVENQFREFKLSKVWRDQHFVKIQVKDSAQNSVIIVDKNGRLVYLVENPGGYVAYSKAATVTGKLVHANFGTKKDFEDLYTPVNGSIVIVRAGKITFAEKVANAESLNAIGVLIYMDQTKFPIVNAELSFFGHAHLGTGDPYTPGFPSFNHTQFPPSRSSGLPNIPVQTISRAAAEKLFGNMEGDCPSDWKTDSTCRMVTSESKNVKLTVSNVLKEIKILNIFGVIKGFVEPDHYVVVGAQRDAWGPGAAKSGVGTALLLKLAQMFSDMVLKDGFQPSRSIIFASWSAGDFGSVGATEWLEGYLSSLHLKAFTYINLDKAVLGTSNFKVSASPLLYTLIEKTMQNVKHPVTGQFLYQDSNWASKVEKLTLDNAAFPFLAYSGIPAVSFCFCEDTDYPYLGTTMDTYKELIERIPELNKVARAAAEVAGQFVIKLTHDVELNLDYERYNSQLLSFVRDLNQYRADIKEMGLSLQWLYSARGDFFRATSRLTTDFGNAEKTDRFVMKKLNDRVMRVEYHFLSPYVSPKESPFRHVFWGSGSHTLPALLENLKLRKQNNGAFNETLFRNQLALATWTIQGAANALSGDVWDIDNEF
T4 sequence (P02768 25-609 limits assumed): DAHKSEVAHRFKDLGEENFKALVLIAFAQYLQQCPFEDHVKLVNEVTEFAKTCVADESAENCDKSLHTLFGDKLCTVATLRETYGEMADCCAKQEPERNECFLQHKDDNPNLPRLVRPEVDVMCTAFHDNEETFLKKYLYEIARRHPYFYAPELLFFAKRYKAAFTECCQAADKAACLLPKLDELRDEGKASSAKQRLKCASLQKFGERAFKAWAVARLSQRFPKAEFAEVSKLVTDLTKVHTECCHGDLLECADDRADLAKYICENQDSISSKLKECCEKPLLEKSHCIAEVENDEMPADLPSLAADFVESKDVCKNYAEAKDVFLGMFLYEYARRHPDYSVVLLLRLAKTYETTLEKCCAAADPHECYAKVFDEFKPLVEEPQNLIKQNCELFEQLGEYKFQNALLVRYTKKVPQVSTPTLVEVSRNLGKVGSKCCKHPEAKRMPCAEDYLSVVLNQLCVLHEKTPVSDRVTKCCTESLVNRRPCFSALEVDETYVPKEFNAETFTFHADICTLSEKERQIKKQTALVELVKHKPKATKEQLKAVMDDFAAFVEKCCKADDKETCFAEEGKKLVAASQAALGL
T5 sequence (Q62351 89-763 limits assumed): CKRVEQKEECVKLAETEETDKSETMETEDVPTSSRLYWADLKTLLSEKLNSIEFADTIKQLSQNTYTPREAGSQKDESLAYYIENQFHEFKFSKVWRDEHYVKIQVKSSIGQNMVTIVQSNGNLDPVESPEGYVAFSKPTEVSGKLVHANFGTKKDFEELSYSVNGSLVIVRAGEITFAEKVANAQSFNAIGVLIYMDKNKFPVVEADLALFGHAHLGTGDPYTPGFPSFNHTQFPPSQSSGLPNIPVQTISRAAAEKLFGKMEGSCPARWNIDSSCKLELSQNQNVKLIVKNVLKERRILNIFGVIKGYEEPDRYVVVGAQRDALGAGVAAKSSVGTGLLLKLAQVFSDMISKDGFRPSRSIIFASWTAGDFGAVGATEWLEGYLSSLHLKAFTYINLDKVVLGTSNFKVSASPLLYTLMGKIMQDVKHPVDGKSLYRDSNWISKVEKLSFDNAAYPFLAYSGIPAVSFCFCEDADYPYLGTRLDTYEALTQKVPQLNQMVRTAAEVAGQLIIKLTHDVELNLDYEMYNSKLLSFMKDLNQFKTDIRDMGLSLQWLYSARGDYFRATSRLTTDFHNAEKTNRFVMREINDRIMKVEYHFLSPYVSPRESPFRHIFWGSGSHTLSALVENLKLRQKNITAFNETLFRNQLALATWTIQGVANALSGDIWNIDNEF

B1: TXP1 (Fc fusion)
chain: ARVDQTPQTITKETGESLTINCVLRDSNCALSSTYWYRKKSGSTNEENISKGGRYVETVNSGSKSFSLKINDLTVEDSGTYRCNVVGTWCMSWRDVYGGGTAVTVNA
notes: Bivalent VNAR-hFc; VNAR at the N-terminus of hFc IgG1; also called VNAR-hFc named TXP1; parental TXP1; not shown: human IgG1 Fc domain (hFc) with attenuated effector function mutations E233P/L234V/L235A/AG236 (deletion of G236)+A327G/
Consider B1, for which the Kd (commonly the concentration at which binding is half-saturated) in [1] is 1.8 nM; with recombinant human TfR-1 [2] it was 1.03 nM; in experiment [3], 3.14 nM; with recombinant human TfR-1 [5], 5.1 nM. Also, the koff (as a rule, the rate constant with which the complex falls apart) in experiment [1] was determined as 9.6e-05 s⁻¹; with recombinant human TfR-1 [2], 0.000134 s⁻¹; in experiment [3], 0.000365 s⁻¹; in the experiment with recombinant human TfR-1 [5] it was 0.00027 s⁻¹. Further, the kon (in general, a measure of how fast the partners come together) in [1] was determined as 53000 M⁻¹ s⁻¹; with recombinant human TfR-1 [2] it was 129000 M⁻¹ s⁻¹; in experiment [3], 116000 M⁻¹ s⁻¹; with recombinant human TfR-1 [5], 54000 M⁻¹ s⁻¹. The half-maximal effective concentration (EC50) (as a rule, the midpoint of the concentration-response curve) stood at 2.2 nM in experiment [4]; 1.4 nM in [6]; 1.9 nM with recombinant human TfR-1 [7]; 1.5 nM with recombinant human TfR-1 [8]; 1.6 nM in [9]. Further, the binding result with HSA, in the experiment with recombinant mouse TfR-1 and in the experiment with recombinant rat TfR-1 was “no binding” each time.
